Data published in patent US20170037110A1 (IMMATICS BIOTECHNOLOGIES, published 2017).

target: T1, HLA-A*02:01 (human); assay: UV peptide exchange ELISA
T1 construct: monomers captured on streptavidin plates; also called MHC class I
Text: Candidate peptides for T cell based therapies according to the present invention were further tested for their MHC binding capacity (affinity). The individual peptide-MHC complexes were produced by UV-ligand exchange, where a UV-sensitive peptide is cleaved upon UV-irradiation, and exchanged with the peptide of interest as analyzed. Only peptide candidates that can effectively bind and stabilize the peptide-receptive MHC molecules prevent dissociation of the MHC complexes. To determine the yield of the exchange reaction, an ELISA was performed based on the detection of the light chain (p2m) of stabilized MHC complexes.
96 well MAXISorp plates (NUNC) were coated over night with 2 μg/ml streptavidin in PBS at room temperature, washed 4× and blocked for 1 h at 37° C. in 2% BSA containing blocking buffer. […] Peptide-MHC monomers of the UV-exchange reaction were diluted 100 fold in blocking buffer. Samples were incubated for 1h at 37° C., washed four times, incubated with 2 μg/ml HRP conjugated anti-p2m for 1h at 37° C., washed again and detected with TMB solution that is stopped with […]. Absorption was measured at 450 nm.

| Binder | peptide exchange yield [%] |
| --- | --- |
| SLTETIEGV | 20 to 50 |
| SLTIDGIYYV | ≥ 75 |
| SLTIDGIRYV | 50 to 75 |
| SLTEYLQNV | ≥ 75 |
